Assay results published in patent US20260265385A1 (ANAPTYSBIO, published 2026).

What was measured:
[1] = biological target: T1, recombinant cynomolgus IL-2Rβ (extracellular domain, Ala1-Thr215) (cynomolgus, UniProt Q38J85 27-240); experiment: SPR, antibody captured on Protein A chip
T1 construct: extracellular domain; Analyte in SPR; also called cynomolgus LL-2Rβ; Cyno IL-2RB
T1 sequence (looked up): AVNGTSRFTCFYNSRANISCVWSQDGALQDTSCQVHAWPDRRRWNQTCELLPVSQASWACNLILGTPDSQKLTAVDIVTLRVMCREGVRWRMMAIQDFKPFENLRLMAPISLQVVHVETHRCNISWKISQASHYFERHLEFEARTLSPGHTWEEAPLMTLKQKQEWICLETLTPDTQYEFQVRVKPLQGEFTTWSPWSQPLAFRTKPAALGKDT
Procedure: (§1) Surface plasmon resonance (SPR) was used to determine the binding affinities. The M6-1625 and M10-1275 antibodies were captured onto a Cytiva Protein A Chip for 60 seconds at 0.5 μg/mL for 60 seconds. The antibodies were exposed to recombinant human LL-2Rβ or cynomolgus LL-2Rβ (corresponding to residues Ala1-Thr215 of the extracellular domains excluding the signal peptide) at typical concentrations ranging from 0.4 nM to 11 nM with typical 300 second associations and 1200 second dissociations using a BiacoreS200 instrument. Sensorgrams were fit globally using a 1:1 binding model in the Biacore T200 Evaluation Software to calculate on- and off-rates and KD values.

[2] = biological target: T2, recombinant human IL-2Rβ (extracellular domain, Ala1-Thr215) (human, UniProt P14784 27-240); experiment: SPR, antibody captured on Protein A chip
T2 construct: extracellular domain; Analyte in SPR; Ala1-Thr215 is counted on the mature protein; also called human LL-2Rβ; Human IL-2RB
T2 sequence (looked up): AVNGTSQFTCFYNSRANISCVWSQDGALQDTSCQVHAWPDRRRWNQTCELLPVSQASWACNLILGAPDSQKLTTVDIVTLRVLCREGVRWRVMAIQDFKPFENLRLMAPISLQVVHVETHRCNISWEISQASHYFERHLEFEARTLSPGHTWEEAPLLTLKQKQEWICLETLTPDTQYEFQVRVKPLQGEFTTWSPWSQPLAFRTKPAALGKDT
Procedure: as §1

B1: APE14946 (antibody, V domains shown)
VH: QVQLVQSGAEVKKPGASVKVSCKASGYTFSRYWIEWVRQAPGQGLEWMGEILPGSGSINHNEKFQGRVTFTADTSTSTVYMELSSLRSEDTAVYFCTRHYGSFDYWGQGTTVTVSS
VL: DIQMTQSPSSLSASVGDRVTITCKASQNVGTDVAWYQQKPGKAPKSLIYSASYRYSGVPSRFSGSGSGTDFTLTISSLQPEDFATYFCHQYSSYPFTFGQGTKLEIKR
notes: M6-p1625 series
[1]
  Kd: 0.255 nM
[2]
  Kd: 0.357 nM

B2: APE14951 (antibody, V domains shown)
VH: QVQLVQSGAEVKKPGASVKVSCKASGYTFSRYWIEWVRQAPGQGLEWMGEILPGSGSINHNEKFQGRVTMTRDTSTSTVYMELSSLRSEDTAVYYCTRHYGSFDYWGQGTTVTVSS
VL: DIQMTQSPSSLSASVGDRVTITCKASQNVGTDVAWFQQKPGKAPKSLIYSASYRYNGVPSRFSGSGSGTDFTLTISSLQPEDFATYYCHQYSSYPFTFGQGTKLEIKR
notes: M6-p1625 series
[1]
  Kd: 0.584 nM
[2]
  Kd: 0.804 nM

B3: APE14949 (antibody, V domains shown)
VH: QVQLVQSGAEVKKPGASVKVSCKASGYTFSRYWIEWVRQAPGQGLEWMGEILPGSGSINHNEKFQGRVTFTADTSTSTVYMELSSLRSEDTAVYYCTRHYGSFDYWGQGTTVTVSS
VL: DIQMTQSPSSLSASVGDRVTITCKASQNVGTDVAWFQQKPGKAPKSLIYSASYRYNGVPSRFSGSGSGTDFTLTISSLQPEDFATYYCHQYSSYPFTFGQGTKLEIKR
notes: M6-p1625 series
[1]
  Kd: 1 nM
[2]
  Kd: 1.5 nM

B4: APE14948 (antibody, V domains shown)
VH: QVQLVQSGAEVKKPGASVKVSCKASGYTFSRYWIEWVRQAPGQGLEWMGEILPGSGSINHNEKFQGRVTFTADTSTSTVYMELSSLRSEDTAVYYCTRHYGSFDYWGQGTTVTVSS
VL: DIQMTQSPSSLSASVGDRVTITCKASQNVGTDVAWYQQKPGKAPKSLIYSASYRYSGVPSRFSGSGSGTDFTLTISSLQPEDFATYFCHQYSSYPFTFGQGTKLEIKR
notes: M6-p1625 series
[1]
  Kd: 0.266 nM
[2]
  Kd: 0.358 nM

B5: APE15092 (antibody, V domains shown)
VH: QVQLVQSGAEVKKPGASVKVSCKASGYTFSRYWIQWVRQAPGQGLEWMGEILPGSGSINHNEKFQGRVTMTRDTSTSTVYMELSSLRSEDTAVYYCTRHYGSFDYWGQGTTVTVSS
VL: DIQMTQSPSSLSASVGDRVTITCKASQNVGTDVAWYQQKPGKAPKSLIYSASYRYSGVPSRFSGSGSGTDFTLTISSLQPEDFATYFCHQYSSYPFTFGQGTKLEIKR
notes: M6-p1625 series
[1]
  Kd: 0.126 nM

B6: APE15091 (antibody, V domains shown)
VH: QVQLVQSGAEVKKPGASVKVSCKASGYTFSRYWINWVRQAPGQGLEWMGEILPGSGSINHNEKFQGRVTMTRDTSTSTVYMELSSLRSEDTAVYYCTRHYGSFDYWGQGTTVTVSS
VL: DIQMTQSPSSLSASVGDRVTITCKASQNVGTDVAWYQQKPGKAPKSLIYSASYRYSGVPSRFSGSGSGTDFTLTISSLQPEDFATYFCHQYSSYPFTFGQGTKLEIKR
notes: M6-p1625 series
[1]
  Kd: 0.345 nM

B7: APE15279 (antibody, V domains shown)
VH: QVQLVQSGAEVKKPGASVKVSCKASGYTFTSQWIEWVRQAPGQGLEWMGEILPGSGSINHNEKFQGRVTMTRDTSTSTVYMELSSLRSEDTAVYYCTRHYGSFDYWGQGTTVTVSS
VL: DIQMTQSPSSLSASVGDRVTITCKASQNVGTDVAWYQQKPGKAPKSLIYSASYRYSGVPSRFSGSGSGTDFTLTISSLQPEDFATYFCHQYESYPFTFGQGTKLEIKR
notes: M6-p1625 series
[1]
  Kd: 0.533 nM
[2]
  Kd: 0.522 nM

B8: APE14947 (antibody, V domains shown)
VH: QVQLVQSGAEVKKPGASVKVSCKASGYTFSRYWIEWVRQAPGQGLEWMGEILPGSGSINHNEKFQGRVTFTADTSTSTVYMELSSLRSEDTAVYFCTRHYGSFDYWGQGTTVTVSS
VL: DIQMTQSPSSLSASVGDRVTITCKASQNVGTDVAWFQQKPGKAPKSLIYSASYRYNGVPSRFSGSGSGTDFTLTISSLQPEDFATYYCHQYSSYPFTFGQGTKLEIKR
notes: M6-p1625 series
[1]
  Kd: 0.977 nM
[2]
  Kd: 1.46 nM

B9: APE15085 (antibody, V domains shown)
VH: QVQLVQSGAEVKKPGASVKVSCKASGYTFSRYWIEWVRQAPGQGLEWMGEILPGSGSINHNEKFQGRVTMTRDTSTSTVYMELSSLRSEDTAVYYCTRHYGSFDYWGQGTTVTVSS
VL: DIQMTQSPSSLSASVGDRVTITCKASQNVGTDVAWYQQKPGKAPKSLIYSASYRYSGVPSRFSGSGSGTDFTLTISSLQPEDFATYFCHQYESYPFTFGQGTKLEIKR
notes: M6-p1625 series
[1]
  Kd: 0.154 nM
[2]
  Kd: 0.158 nM

B10: APE15278 (antibody, V domains shown)
VH: QVQLVQSGAEVKKPGASVKVSCKASGYTFSRYWIEWVRQAPGQGLEWMGEISPGVDTINHNEKFQGRVTMTRDTSTSTVYMELSSLRSEDTAVYYCTRHYGSFDYWGQGTTVTVSS
VL: DIQMTQSPSSLSASVGDRVTITCKASQNVGTDVAWYQQKPGKAPKSLIYSASYRYSGVPSRFSGSGSGTDFTLTISSLQPEDFATYFCHQYESYPFTFGQGTKLEIKR
notes: M6-p1625 series
[1]
  Kd: 0.488 nM
[2]
  Kd: 0.334 nM

B11: APE15277 (antibody, V domains shown)
VH: QVQLVQSGAEVKKPGASVKVSCKASGYTFISYWIQWVRQAPGQGLEWMGEILPGSGSINHNEKFQGRVTMTRDTSTSTVYMELSSLRSEDTAVYYCTRHYGSFDYWGQGTTVTVSS
VL: DIQMTQSPSSLSASVGDRVTITCKASQNVGTDVAWYQQKPGKAPKSLIYSASYRYSGVPSRFSGSGSGTDFTLTISSLQPEDFATYFCHQYESYPFTFGQGTKLEIKR
notes: M6-p1625 series
[1]
  Kd: 0.244 nM
[2]
  Kd: 0.229 nM

B12: APE15086 (antibody, V domains shown)
VH: QVQLVQSGAEVKKPGASVKVSCKASGYTFSRYWIEWVRQAPGQGLEWMGEILPGSGSINHNEKFQGRVTMTRDTSTSTVYMELSSLRSEDTAVYYCTRHYGSFDYWGQGTTVTVSS
VL: DIQMTQSPSSLSASVGDRVTITCKASQNVGTDVAWYQQKPGKAPKSLIYSASYRYSGVPSRFSGSGSGTDFTLTISSLQPEDFATYFCQQYSSYPFTFGQGTKLEIKR
notes: M6-p1625 series
[1]
  Kd: 0.25 nM
[2]
  Kd: 0.305 nM

B13: APE14950 (antibody, V domains shown)
VH: QVQLVQSGAEVKKPGASVKVSCKASGYTFSRYWIEWVRQAPGQGLEWMGEILPGSGSINHNEKFQGRVTMTRDTSTSTVYMELSSLRSEDTAVYYCTRHYGSFDYWGQGTTVTVSS
VL: DIQMTQSPSSLSASVGDRVTITCKASQNVGTDVAWYQQKPGKAPKSLIYSASYRYSGVPSRFSGSGSGTDFTLTISSLQPEDFATYFCHQYSSYPFTFGQGTKLEIKR
notes: M6-p1625 series
[1]
  Kd: 0.192 nM
[2]
  Kd: 0.252 nM

B14: APE15093 (antibody, V domains shown)
VH: QVQLVQSGAEVKKPGASVKVSCKASGYTFTRYWIEWVRQAPGQGLEWMGEILPGSGSINHNEKFQGRVTMTRDTSTSTVYMELSSLRSEDTAVYYCTRHYGSFDYWGQGTTVTVSS
VL: DIQMTQSPSSLSASVGDRVTITCKASQNVGTDVAWYQQKPGKAPKSLIYSASYRYSGVPSRFSGSGSGTDFTLTISSLQPEDFATYFCHQYSSYPFTFGQGTKLEIKR
notes: M6-p1625 series
[1]
  Kd: 0.189 nM

B15: APE15088 (antibody, V domains shown)
VH: QVQLVQSGAEVKKPGASVKVSCKASGYTFSRYWIEWVRQAPGQGLEWMGEILPGSGSINHNEKFQGRVTMTRDTSTSTVYMELSSLRSEDTAVYYCTRHYGSFDYWGQGTTVTVSS
VL: DIQMTQSPSSLSASVGDRVTITCKASQNVGTNVAWYQQKPGKAPKSLIYSASYRYSGVPSRFSGSGSGTDFTLTISSLQPEDFATYFCHQYSSYPFTFGQGTKLEIKR
notes: M6-p1625 series
[1]
  Kd: 16.7 nM
[2]
  Kd: 16.4 nM

B16: APE15089 (antibody, V domains shown)
VH: QVQLVQSGAEVKKPGASVKVSCKASGYTFSRYWIEWVRQAPGQGLEWMGEILPGSGSINHNEKFQGRVTMTRDTSTSTVYMELSSLRSEDTAVYYCTRHYGSFDYWGQGTTVTVSS
VL: DIQMTQSPSSLSASVGDRVTITCKASQNVDTDVAWYQQKPGKAPKSLIYSASYRYSGVPSRFSGSGSGTDFTLTISSLQPEDFATYFCHQYSSYPFTFGQGTKLEIKR
notes: M6-p1625 series
[1]
  Kd: 9.39 nM
[2]
  Kd: 1.04 nM

B17: APE15087 (antibody, V domains shown)
VH: QVQLVQSGAEVKKPGASVKVSCKASGYTFSRYWIEWVRQAPGQGLEWMGEILPGSGSINHNEKFQGRVTMTRDTSTSTVYMELSSLRSEDTAVYYCTRHYGSFDYWGQGTTVTVSS
VL: DIQMTQSPSSLSASVGDRVTITCKASQNVGTEVAWYQQKPGKAPKSLIYSASYRYSGVPSRFSGSGSGTDFTLTISSLQPEDFATYFCHQYSSYPFTFGQGTKLEIKR
notes: M6-p1625 series
[1]
  Kd: 3.56 nM
[2]
  Kd: 4.31 nM

B18: APE15090 (antibody, V domains shown)
VH: QVQLVQSGAEVKKPGASVKVSCKASGYTFSRYWIEWVRQAPGQGLEWMGEILPGSGSIDHNEKFQGRVTMTRDTSTSTVYMELSSLRSEDTAVYYCTRHYGSFDYWGQGTTVTVSS
VL: DIQMTQSPSSLSASVGDRVTITCKASQNVGTDVAWYQQKPGKAPKSLIYSASYRYSGVPSRFSGSGSGTDFTLTISSLQPEDFATYFCHQYSSYPFTFGQGTKLEIKR
notes: M6-p1625 series
[1]
  Kd: 0.44 nM
[2]
  Kd: 0.657 nM
